Laboratory results: patent US7282483 (Amgen, dated 2007)

Target: T1, TNF-β (lymphotoxin) (UniProt P01374 35-205, limits assumed)
T1 sequence (looked up): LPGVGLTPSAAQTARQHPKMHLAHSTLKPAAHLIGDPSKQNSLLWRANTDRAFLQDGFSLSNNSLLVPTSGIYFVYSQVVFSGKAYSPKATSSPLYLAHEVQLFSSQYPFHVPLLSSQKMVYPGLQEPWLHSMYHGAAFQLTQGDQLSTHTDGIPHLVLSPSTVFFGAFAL
Assay: preliminary tests, analogous to the competition binding test

B1: TNF-binding protein (TNF-BP), natural, purified from dialyzed urine of uraemia patients (receptor)
chain: DSVCPQGKYIHPQNNSICCTKCHKGTYLYNDCPGPGQDTDCRECESGSFTASENHLRHCLSCSKCRKEMGQVEISSCTVDRDTVCGCRKNQYRHYWSENLFQCFNCSLCLNGTVHLSCQEKQNTVCTCHAGFFLRENECVSCSNCKKSLECTKLCLPQIEN
modifications: glycoprotein; Asn-25 glycosylated (numbering of the TNF-BP cDNA sequence, Leu-1 = first residue after the signal peptide)
notes: Main form (about 80 %) starts at Asp-12; In the preliminary tests it was used as concentrated dialyzed urine or partly purified preparations
  affinity for TNF-β relative to its affinity for TNF-α: ~0.02 ratio (affinity for TNF-β / affinity for TNF-α)
